According to patent US20180185504A1 (Regeneron, published 2018):
Read-outs that look alike come from different tables or passages of the source.

B1: H1H6975P-mc-VC-PAB-MMD (antibody, human IgG1, V domains shown)
VH: EVHLVESGGGLVQPGGSLRLSCAASGFTFSSYEMNWVRQTPGKGLEWISHISSRSVIIYYADSVKGRFTISRDNAKNSLFLQMNSLRAEDTAVYFCAGITIFGIPEYWGQGTLVTVSS
VL: EIVLTQSPATLSLSPGERATLSCRASQSVSSYFAWYQQKPGQAPRLLIYDASSRATGIPTRFSGSGSGTDFTLTISSLEPEDFAVYYCQQRSSWPITFGQGTRLEIK
modifications: MMD conjugated through mc-VC-PAB linker; attachment residues not stated
B2: H1H6782P-mc-VC-PAB-MMD (antibody, human IgG1, V domains shown)
VH: EVQLVESGGGLVQPGRSLRLSCAASGFTFDDYAMHWVRQAPGKGLEWVSGIIWNSGHIGYGDSVKGRFTISRDNAKKSLYLQMNSLRAEDTALYYCARDSGRYQSYFDYWGQGTLVTVSS
VL: DIQMTQSPSTLSASVGDRVTITCRASHIISSWLAWYQQKPGKAPKVLIFKASSLESGVPSRFSGSGSGTEFTLTISSLQPDDFATYYCQQYNTYSRTFGQGTKVEIK
modifications: MMD conjugated through mc-VC-PAB linker; attachment residues not stated
B3: H1H6782P-mc-VC-PAB-MeNHC3-May (antibody, human IgG1, V domains shown)
VH: B2 VH
VL: B2 VL
modifications: MeNHC3-May conjugated through mc-VC-PAB linker; attachment residues not stated
B4: H1H6803P-DM1 (antibody, human IgG1, V domains shown)
VH: EVQLVESGGGVVRPGGSLRLSCAASGFKFDDYGMTWVRHVPGKGLEWVSGINWNGGRTGYTDSVKGRFTISRDNAKNSLYLQMNSLRAEDTALYHCAGARRDAFDIWGQGTMVTVSS
VL: DIQMTQSPSSLSASIGDRVTITCRASQNIIKYLNWYQQNAGKAPKLLIYTASSLQSGVPSRFSGSGSGTDFTLTISSLQPEDFATYYCQQSSSSPYTFGQGTKLEIK
modifications: DM1 conjugated through SMCC linker; attachment residues not stated
B5: H1H6953N-mc-VC-PAB-MMAE (antibody, human IgG1, V domains shown)
VH: EVQLLESGGGLVQPGGTLRLSCAASGFTFSAYAMSWVRQAPGKGLEWVSSINVRAGDTYYADSVKGRFTISRDNSKNTLFLLMNSLRAEDTAAYYCAKARYSSNWGFDFWGQGTLVTVSS
VL: DIVMTQSPDSLTVSLGARTTINCQSSQTILHSSNNHNYLAWYQQKPGLPPKLLIYWSSTRESGVPDRFSGSGSGTDFTLTISSLQAEDVAIYYCQQYSNTPYTFGQGTKLEIN
modifications: MMAE conjugated through cleavable mc-vc-PAB linker; attachment residues not stated
B6: H1H6953N-mc-VC-PAB-MeNHC3-May (antibody, human IgG1, V domains shown)
VH: B5 VH
VL: B5 VL
modifications: MeNHC3-May conjugated through mc-VC-PAB linker; attachment residues not stated
B7: H1H6953N-mc-VC-PAB-MMD (antibody, human IgG1, V domains shown)
VH: B5 VH
VL: B5 VL
modifications: MMD conjugated through mc-VC-PAB linker; attachment residues not stated
B8: H1H6765P-mc-VC-PAB-MMAE (antibody, human IgG1, V domains shown)
VH: EVQLVESGGGVVRPGGSLRLSCVGSGFSFDDHGMNWVRQGPGKGLEWVSGFNWNGGSTNYAESVKGRFTISRDNARNSLFLQMNSLRAEDTALYYCVRGRSGWFNDAFDVWGPGTMVTVSS
VL: EIVLTQSPGTLSLSPGERATLSCRASQTINSNYLAWYRQKPGQTPRLLIYGTSSRATGIPDRFSGSGSGTDFSLTISRLEPEDFAVFYCQQYAGLPTFGPGTKVDIK
modifications: MMAE conjugated through cleavable mc-vc-PAB linker; attachment residues not stated
B9: H1H6793P-DM1 (antibody, human IgG1, V domains shown)
VH: EVQLVESGGGLVQPGGSLRLSCAASGFSFSIYAMSWFRQAPGKGLEWVSAINGRGDGTHYADSVKGRFTISRDNSKTTLYLQMSSLRAEDTAVYYCAKPVMSTNGFDIWGQGTMVTVSS
VL: DIQMTQSPSTLSASVGDRVTITCRASQSISSWLAWYQLKPGKAPKLLIYKASNLESGVPSRFSGSGSGTEFTLTISSLQPDDFATYYCQQYNIYWTFGQGTKVEIK
modifications: DM1 conjugated through SMCC linker; attachment residues not stated
B10: H1H6958N2-mc-VC-PAB-MMAE (antibody, human IgG1, V domains shown)
VH: QVQLVESGGGVVQPGRSLRLSCGASGFTFRNYGMQWVRQGPGKGLEWVTLISFDGNDKYYADSVKGRFTISRDNSKNTLFLQMNSLRTEDTAVYYCARGGDFDYWGQGTLVTVSS
VL: DIQMTQSPSSLSASVGDRVTITCRASQDIRKDLGWYQQKPGKAPKRLIYAASSLHSGVPSRFSGSGSGTEFTLTISSLQPEDFATYYCLQHNSYPMYTFGQGTKLEIK
modifications: MMAE conjugated through cleavable mc-vc-PAB linker; attachment residues not stated
B11: H1H6958N2-SPDB-DM4 (antibody, human IgG1, V domains shown)
VH: B10 VH
VL: B10 VL
modifications: DM4 conjugated through SPDB linker; attachment residues not stated
B12: H1H6800P-DM1 (antibody, human IgG1, V domains shown)
VH: EVQLVESGGGLVQPGRSLRLSCAASGFTFDGYAMHWVRQGPGKGLEWVSGISWYSDTLGYADSVKGRFTISRDNAKNSLYLQMNSLRTEDTAFYYCAKISSSGWAFDYWGQGTLVTVSS
VL: EIVLTQSPGTLSLSPGERATLSCRASHSVSSAYLAWYQQKPGQTPRLLIYGTSSRATGIPDRFSGSGSGTDFTLTISRLEPEDFAVYYCQQYGSSPLFTFGPGTKVDIK
modifications: DM1 conjugated through SMCC linker; attachment residues not stated
B13: H1H6959N2-DM1 (antibody, human IgG1, V domains shown)
VH: EVQLVESGGGLVQPGRSLRLSCAASGFTFDDYAMHWVRQAPGKGLEWVSGISWHSGIIGYADSVKGRFTISRDNAKNSLYLQMNSLRTEDAALYYCAKIGSYFYFDSWGQGTLVTVSS
VL: EIVLTQSPGTLSLSPGERATLSCRASQSVSSNYLAWYQQKPGQAPRLLIYGASSRATGIPDRFSGSGSGTDFTLTISRLEPEDFAVYYCQQFGSSGYTFGQGTNLEIK
modifications: DM1 conjugated through SMCC linker; attachment residues not stated

Key:
Assay in all cases: cell-based or functional assay
[1] = biological target: T1, human prolactin receptor (PRLR) (human, UniProt P16471 25-622)
T1 sequence: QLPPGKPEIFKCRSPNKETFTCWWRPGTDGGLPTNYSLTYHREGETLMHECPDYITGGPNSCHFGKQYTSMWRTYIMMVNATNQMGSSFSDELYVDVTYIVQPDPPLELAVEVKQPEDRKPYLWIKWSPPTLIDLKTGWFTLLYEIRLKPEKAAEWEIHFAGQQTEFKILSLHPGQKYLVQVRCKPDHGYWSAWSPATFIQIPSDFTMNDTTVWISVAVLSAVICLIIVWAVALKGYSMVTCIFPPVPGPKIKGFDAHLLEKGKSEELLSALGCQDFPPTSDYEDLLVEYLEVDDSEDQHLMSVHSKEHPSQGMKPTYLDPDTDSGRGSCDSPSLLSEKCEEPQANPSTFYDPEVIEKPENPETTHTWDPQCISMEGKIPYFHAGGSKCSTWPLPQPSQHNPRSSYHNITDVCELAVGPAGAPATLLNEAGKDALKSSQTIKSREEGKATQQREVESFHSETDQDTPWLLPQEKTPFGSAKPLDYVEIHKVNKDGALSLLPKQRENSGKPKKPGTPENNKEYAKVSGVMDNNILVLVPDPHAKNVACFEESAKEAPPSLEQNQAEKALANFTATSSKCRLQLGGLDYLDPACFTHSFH

[2] = biological target: T1, human prolactin receptor (PRLR); remark: listed apart in the source
[3] = biological target: T1, human prolactin receptor (PRLR); remark: listed apart in the source
[4] = biological target: T1, human prolactin receptor (PRLR); remark: listed apart in the source
[5] = biological target: T1, human prolactin receptor (PRLR); remark: listed apart in the source

Binder	% Kill, T47D cells [1] [%]	IC50, cell viability, T47D cells [1] [nM]	% Kill, MCF7/ATCC cells [2] [%]	% Kill, MCF7/PRLR cells [2] [%]	IC50, cell viability, MCF7/ATCC cells [2] [nM]	IC50, cell viability, MCF7/PRLR cells [2] [nM]	% Kill, MCF7/PRLR cells [3] [%]	% Kill, MCF7 cells [3] [%]	% Kill, T47D cells [3] [%]	IC50, cell viability, MCF7/PRLR cells [3] [nM]	IC50, cell viability, MCF7 cells [3] [nM]	IC50, cell viability, T47D cells [3] [nM]	% Kill, PC3/PRLR cells [4] [%]	IC50, cell viability, PC3/PRLR cells [4] [nM]	further results
B1	90	3	50	90	150	0.2	–	–	–	–	–	–	–	–	–
B2	90	2	50	90	200	0.3	–	–	–	–	–	–	–	–	–
B3	90	2	50	80	250	0.2	–	–	–	–	–	–	–	–	–
B4	–	–	–	–	–	–	84	60	77	0.44	150	8.61	70	2.32	–
B5	80	1	40	85	150	0.1	–	–	–	–	–	–	–	–	% Kill, MCF7/ATCC cells [5]: 42%; % Kill, MCF7/PRLR cells [5]: 85%; % Kill, PC3/hPRLR cells [5]: 80%; IC50, cell viability, MCF7/ATCC cells [5]: 150 nM; IC50, cell viability, MCF7/PRLR cells [5]: 0.1 nM; IC50, cell viability, PC3/hPRLR cells [5]: 0.2 nM
B6	90	1	60	80	150	0.2	–	–	–	–	–	–	–	–	–
B7	90	1	50	90	300	0.2	–	–	–	–	–	–	–	–	–
B8	90	1	40	90	150	0.2	–	–	–	–	–	–	–	–	% Kill, MCF7/ATCC cells [5]: 38%; % Kill, MCF7/PRLR cells [5]: 86%; % Kill, PC3/hPRLR cells [5]: 85%; IC50, cell viability, MCF7/ATCC cells [5]: 150 nM; IC50, cell viability, MCF7/PRLR cells [5]: 0.2 nM; IC50, cell viability, PC3/hPRLR cells [5]: 0.4 nM
B9	–	–	–	–	–	–	87	67	53	0.54	125	11.1	65	3.65	–
B10	90	1	50	90	150	0.2	–	–	–	–	–	–	–	–	% Kill, MCF7/ATCC cells [5]: 53%; % Kill, MCF7/PRLR cells [5]: 88%; % Kill, PC3/hPRLR cells [5]: 82%; IC50, cell viability, MCF7/ATCC cells [5]: 150 nM; IC50, cell viability, MCF7/PRLR cells [5]: 0.2 nM; IC50, cell viability, PC3/hPRLR cells [5]: 0.5 nM
B11	100	1	80	90	25	0.8	–	–	–	–	–	–	–	–	–
B12	–	–	–	–	–	–	85	65	79	0.4	150	3.2	68	1.37	–
B13	–	–	–	–	–	–	80	82	71	0.47	100	48.9	82	11.6	% Kill, 293/PRLR cells [4]: 95%; IC50, cell viability, 293/PRLR cells [4]: 4.82 nM
